B1: L300V (protein)
chain: MQLRNPELHLGCALALRFLALVSWDIPGARALDNGLARTPTMGWLHWERFMCNLDCQEEPDSCISEKLFMEMAELMVSEGWKDAGYEYLCIDDCWMAPQRDSEGRLQADPQRFPHGIRQLANYVHSKGLKLGIYADVGNKTCAGFPGSFGYYDIDAQTFADWGVDLLKFDGCYCDSLENLADGYKHMSLALNRTGRSIVYSCEWPLYMWPFQKPNYTEIRQYCNHWRNFADIDDSWKSIKSILDWTSFNQERIVDVAGPGGWNDPDMLVIGNFGLSWNQQVTQMALWAIMAAPLFMSNDVRHISPQAKALLQDKDVIAINQDPLGKQGYQLRQGDNFEVWERPLSGLAWAVAMINRQEIGGPRSYTIAVASLGKGVACNPACFITQLLPVKRKLGFYEWTSRLRSHINPTGTVLLQLENTMQMSLKDLL
B2: I303S (protein)
chain: MQLRNPELHLGCALALRFLALVSWDIPGARALDNGLARTPTMGWLHWERFMCNLDCQEEPDSCISEKLFMEMAELMVSEGWKDAGYEYLCIDDCWMAPQRDSEGRLQADPQRFPHGIRQLANYVHSKGLKLGIYADVGNKTCAGFPGSFGYYDIDAQTFADWGVDLLKFDGCYCDSLENLADGYKHMSLALNRTGRSIVYSCEWPLYMWPFQKPNYTEIRQYCNHWRNFADIDDSWKSIKSILDWTSFNQERIVDVAGPGGWNDPDMLVIGNFGLSWNQQVTQMALWAIMAAPLFMSNDLRHSSPQAKALLQDKDVIAINQDPLGKQGYQLRQGDNFEVWERPLSGLAWAVAMINRQEIGGPRSYTIAVASLGKGVACNPACFITQLLPVKRKLGFYEWTSRLRSHINPTGTVLLQLENTMQMSLKDLL
B3: H302D (protein)
chain: MQLRNPELHLGCALALRFLALVSWDIPGARALDNGLARTPTMGWLHWERFMCNLDCQEEPDSCISEKLFMEMAELMVSEGWKDAGYEYLCIDDCWMAPQRDSEGRLQADPQRFPHGIRQLANYVHSKGLKLGIYADVGNKTCAGFPGSFGYYDIDAQTFADWGVDLLKFDGCYCDSLENLADGYKHMSLALNRTGRSIVYSCEWPLYMWPFQKPNYTEIRQYCNHWRNFADIDDSWKSIKSILDWTSFNQERIVDVAGPGGWNDPDMLVIGNFGLSWNQQVTQMALWAIMAAPLFMSNDLRDISPQAKALLQDKDVIAINQDPLGKQGYQLRQGDNFEVWERPLSGLAWAVAMINRQEIGGPRSYTIAVASLGKGVACNPACFITQLLPVKRKLGFYEWTSRLRSHINPTGTVLLQLENTMQMSLKDLL
B4: H302N (protein)
chain: MQLRNPELHLGCALALRFLALVSWDIPGARALDNGLARTPTMGWLHWERFMCNLDCQEEPDSCISEKLFMEMAELMVSEGWKDAGYEYLCIDDCWMAPQRDSEGRLQADPQRFPHGIRQLANYVHSKGLKLGIYADVGNKTCAGFPGSFGYYDIDAQTFADWGVDLLKFDGCYCDSLENLADGYKHMSLALNRTGRSIVYSCEWPLYMWPFQKPNYTEIRQYCNHWRNFADIDDSWKSIKSILDWTSFNQERIVDVAGPGGWNDPDMLVIGNFGLSWNQQVTQMALWAIMAAPLFMSNDLRNISPQAKALLQDKDVIAINQDPLGKQGYQLRQGDNFEVWERPLSGLAWAVAMINRQEIGGPRSYTIAVASLGKGVACNPACFITQLLPVKRKLGFYEWTSRLRSHINPTGTVLLQLENTMQMSLKDLL
B5: H302L (protein)
chain: MQLRNPELHLGCALALRFLALVSWDIPGARALDNGLARTPTMGWLHWERFMCNLDCQEEPDSCISEKLFMEMAELMVSEGWKDAGYEYLCIDDCWMAPQRDSEGRLQADPQRFPHGIRQLANYVHSKGLKLGIYADVGNKTCAGFPGSFGYYDIDAQTFADWGVDLLKFDGCYCDSLENLADGYKHMSLALNRTGRSIVYSCEWPLYMWPFQKPNYTEIRQYCNHWRNFADIDDSWKSIKSILDWTSFNQERIVDVAGPGGWNDPDMLVIGNFGLSWNQQVTQMALWAIMAAPLFMSNDLRLISPQAKALLQDKDVIAINQDPLGKQGYQLRQGDNFEVWERPLSGLAWAVAMINRQEIGGPRSYTIAVASLGKGVACNPACFITQLLPVKRKLGFYEWTSRLRSHINPTGTVLLQLENTMQMSLKDLL
B6: H302Y (protein)
chain: MQLRNPELHLGCALALRFLALVSWDIPGARALDNGLARTPTMGWLHWERFMCNLDCQEEPDSCISEKLFMEMAELMVSEGWKDAGYEYLCIDDCWMAPQRDSEGRLQADPQRFPHGIRQLANYVHSKGLKLGIYADVGNKTCAGFPGSFGYYDIDAQTFADWGVDLLKFDGCYCDSLENLADGYKHMSLALNRTGRSIVYSCEWPLYMWPFQKPNYTEIRQYCNHWRNFADIDDSWKSIKSILDWTSFNQERIVDVAGPGGWNDPDMLVIGNFGLSWNQQVTQMALWAIMAAPLFMSNDLRYISPQAKALLQDKDVIAINQDPLGKQGYQLRQGDNFEVWERPLSGLAWAVAMINRQEIGGPRSYTIAVASLGKGVACNPACFITQLLPVKRKLGFYEWTSRLRSHINPTGTVLLQLENTMQMSLKDLL

System: mutant form of α-Gal A expressed in HEK-293 cells
Test: HEK assay (GLP HEK / Migalastat Amenability Assay): α-Gal A activity in lysates of transiently transfected HEK-293 cells incubated with or without 10 μM migalastat
Assay type: cell-based, human
Details: for Absolute increase (% WT) / Relative increase: 10 μM migalastat versus baseline; for Baseline α-Gal A activity (% WT): absence of migalastat; for Baseline α-Gal A activity (% WT) / 10 μM migalastat α-Gal A activity (% WT): percentage of baseline wild-type α-Gal A activity; for 10 μM migalastat α-Gal A activity: incubated 5 days with 10 μM migalastat; for 10 μM migalastat α-Gal A activity (% WT): with 10 μM migalastat, 5 days
Method in brief: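 HEK-293 cells transiently transfected with mutant α-Gal A and incubated with or without 10 μM migalastat; lysate activity given as nmol free 4-MU released per mg protein per hour. Values are mean±SEM.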

[1] = lysates of HEK-293 cells transiently transfected with the mutant form, incubated 5 days in absence of migalastat, mean ± SEM
[2] = lysates of HEK-293 cells transiently transfected with the mutant form, mean ± SEM

Molecule	Absolute increase (% WT)	Relative increase	Baseline α-Gal A activity (% WT) (mean ± SEM)	Baseline α-Gal A activity [1] [nmol/mg/h]	10 μM migalastat α-Gal A activity [2] [nmol/mg/h]	10 μM migalastat α-Gal A activity (% WT) (mean ± SEM)	Baseline α-Gal A activity (nmol/mg/hr) [1]
B1	14.0	13.2	1.3 ± 0.2	406 ± 48	5354 ± 203	15.3 ± 0.6	
B2	3.8				1496 ± 117	3.8 ± 0.3	BLD (“BLD” indicates that the mean α-Gal A activity was below the limit of detection (<142 nmol/mg/hr))
B3	25.8	1.3	95.1 ± 5.8	32677 ± 1437	41716 ± 1847	120.8 ± 6.6	
B4	30.2	1.3	91.2 ± 4.3	31958 ± 1777	42296 ± 2028	121.4 ± 6.2	
B5	24.6	1.4	60.7 ± 5.1	24188 ± 1797	34251 ± 1760	85.3 ± 4.7	
B6	25.3	1.4	59 ± 3.5	22554 ± 1372	31688 ± 1241	84.2 ± 5.2	
